In PMC2871789:

How the values were obtained:
Test in all cases: EMSA
[1] = target: T1, RelE (Mycobacterium tuberculosis H37Rv) (UniProt O50461)
T1 sequence: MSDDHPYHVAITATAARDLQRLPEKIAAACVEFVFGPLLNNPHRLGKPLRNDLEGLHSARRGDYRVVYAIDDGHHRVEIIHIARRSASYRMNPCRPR

[2] = target: T2, RelB (Mycobacterium tuberculosis H37Rv) (UniProt O50462)
T2 sequence: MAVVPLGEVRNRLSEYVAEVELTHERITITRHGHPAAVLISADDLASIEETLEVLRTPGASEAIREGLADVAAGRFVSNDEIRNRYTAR

[3] = target: T3, RelB;RelE (Mycobacterium tuberculosis H37Rv;Mycobacterium tuberculosis H37Rv) (UniProt O50462+O50461)
T3 sequence 1: T2 sequence
T3 sequence 2: T1 sequence

[4] = target: RelK (Mycobacterium tuberculosis H37Rv) (UniProt P9WF09)
[5] = target: T4, RelB;RelG (Mycobacterium tuberculosis H37Rv;Mycobacterium tuberculosis H37Rv) (UniProt O50462+O33348)
T4 sequence 1: T2 sequence
T4 sequence 2: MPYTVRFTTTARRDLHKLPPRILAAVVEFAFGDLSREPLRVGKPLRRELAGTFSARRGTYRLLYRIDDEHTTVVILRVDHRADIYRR

[6] = target: RelB;RelK (Mycobacterium tuberculosis H37Rv;Mycobacterium tuberculosis H37Rv) (UniProt O50462+P9WF09)
[7] = target: T5, RelF;RelE (Mycobacterium tuberculosis H37Rv;Mycobacterium tuberculosis H37Rv) (UniProt O33347+O50461)
T5 sequence 1: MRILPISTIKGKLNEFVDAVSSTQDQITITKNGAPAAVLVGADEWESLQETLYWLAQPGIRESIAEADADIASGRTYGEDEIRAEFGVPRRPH
T5 sequence 2: T1 sequence

[8] = target: T6, RelF;RelG (Mycobacterium tuberculosis H37Rv;Mycobacterium tuberculosis H37Rv) (UniProt O33347+O33348)
T6 sequence 1: T5 sequence 1
T6 sequence 2: T4 sequence 2

RelK (Mycobacterium tuberculosis H37Rv), sequence (P9WF09 whole entry): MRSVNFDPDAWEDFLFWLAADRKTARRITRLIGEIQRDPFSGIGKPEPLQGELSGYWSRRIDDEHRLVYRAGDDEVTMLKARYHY
RelB;RelK (Mycobacterium tuberculosis H37Rv;Mycobacterium tuberculosis H37Rv), sequence (P9WF09 whole entry, one chain of several): as the sequence (P9WF09 whole entry) above

## ACCGTCTAGATGACAAGTTGGCCGGGATCAAGCGAATCTCGCGCCGGGCGATGTCAGCCCCGTCGTCAGGCTCGTCGAAGGTGCACGCCGTCGAACAGCAGGAGATCCTCGACGAGGCGTTCGGCTGAGTTCGCTCAGCCGAACGCTCGAGGAGACATCAAACAGCGACGAGGCGTTCGGCTCGGTAAGCCGATGCTCGGCGTACAGGGTTTAGCCATACTTTTAGCTACAATCGCGGTTATGGCTGTTGTCCCACTGGGTATA (double strand) [1247p]
[1]
  binding: no binding
[2]
  binding: no binding
[3]
  binding: binds
[4]
  binding: no binding
[5]
  binding: binds
[6]
  binding: binds

## ATCTTCTAGAACACACCGAGACCGAACCGTTACGCCGAGACTAGGTCGCGAATGGAACACCACCGCGAAAATCGTGGCCAGAAATCGCAACCACGTTACGCTCGCGACCGCTCAATCGAGCAAGGCGCCGACCGCAAGCACCAGCAAACCTGAGACGCCGCGCACAAAGTGCGAAACCACTGGAAGGTGAGCCCTAATTTAGGGCTGAGCAGGACCTGTATAACGGCCTAGTATGGCGGTATGCGGATACTGCCGATTTCTATA (double strand) [2865p]
[7]
  binding: binds
[8]
  binding: binds

## GGCGTTCGGCTCGGTAAGCCGATGCTCGGCGTACAGGGTTTAGCCATACTTTTAGCTACAATCGCGGTTATGGCTGTTGTCCCACTGGGTATA (double strand) [1247p3]
[3]
  binding: binds

## TCCGAACGCCTCGTCGCTGTTTGATGTCTCCTCGAGCGTTCGGCTGAGCGAACTCAGCCGAACGCCTCGTCGAGGATCTCCTGCTGTTCGACGGCGTGCACCTTCGACGAGCCTGACGACGGGGCTGACATCGCCCGGCGCGAGATTCGCTTGATCCCGGCCAACTTGTCATCTAGACGGT (double strand) [1247p5]
[3]
  binding: no binding
